Laboratory results: article PMC10955726, “DNA‐dependent phase separation by human SSB2 (NABP1/OBFC2A) protein points to adaptations to eukaryotic genome repair processes”

Tests used:
[1] = molecular target: T1, hSSB2 (C-terminally His-tagged) (Homo sapiens, UniProt Q96AH0 1-204); test: fluorescence anisotropy; no MgCl2; Hill n 1.1; Anisotropy: standard LLPS buffer without MgCl2 (50 mM KCl standard), 25 C, 10 nM probe; EMSA: standard LLPS buffer (50 mM KCl, 10 mM MgCl2), 50 nM probe, 1% agarose; buffer species and pH not in the material; conditions: protein: recombinant; tags: C-terminal His; label: 3'-fluorescein; single strand
T1 sequence (Q96AH0 whole entry): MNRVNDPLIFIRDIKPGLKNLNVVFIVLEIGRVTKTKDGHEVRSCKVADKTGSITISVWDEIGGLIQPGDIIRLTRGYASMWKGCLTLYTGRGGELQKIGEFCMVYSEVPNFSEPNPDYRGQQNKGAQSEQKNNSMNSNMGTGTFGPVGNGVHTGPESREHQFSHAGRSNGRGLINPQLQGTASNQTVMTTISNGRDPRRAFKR

hSSB2-dIDR = hSSB2-dIDR (Homo sapiens, UniProt Q96AH0 1-100); test: fluorescence anisotropy; no MgCl2; Hill n 2.4; Anisotropy: standard LLPS buffer without MgCl2 (50 mM KCl standard), 25 C, 10 nM probe; EMSA: standard LLPS buffer (50 mM KCl, 10 mM MgCl2), 50 nM probe, 1% agarose; buffer species and pH not in the material; conditions: protein: recombinant; tags: His (terminus not clearly stated); label: 3'-fluorescein; single strand
Sequence of hSSB2-dIDR (Q96AH0 1-100): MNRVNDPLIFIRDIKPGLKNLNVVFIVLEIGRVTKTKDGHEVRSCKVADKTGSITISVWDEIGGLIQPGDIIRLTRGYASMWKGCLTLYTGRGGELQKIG

[2] = molecular target: T1, hSSB2 (C-terminally His-tagged); test: fluorescence anisotropy; no MgCl2; Hill n 3.3; Anisotropy: standard LLPS buffer without MgCl2 (50 mM KCl standard), 25 C, 10 nM probe; EMSA: standard LLPS buffer (50 mM KCl, 10 mM MgCl2), 50 nM probe, 1% agarose; buffer species and pH not in the material; conditions: protein: recombinant; tags: C-terminal His; label: 3'-fluorescein; single strand
[3] = molecular target: T1, hSSB2 (C-terminally His-tagged); test: fluorescence anisotropy; no MgCl2; Hill n 2.7; Anisotropy: standard LLPS buffer without MgCl2 (50 mM KCl standard), 25 C, 10 nM probe; EMSA: standard LLPS buffer (50 mM KCl, 10 mM MgCl2), 50 nM probe, 1% agarose; buffer species and pH not in the material; conditions: protein: recombinant; tags: C-terminal His; label: 3'-fluorescein; single strand

B1: ss54 DNA (ssDNA)
DNA: TCCTTTTGATAAGAGGTCATTTTTGCGGATGGCTTAGAGCTTAATTGCGCAACG
For B1, the Kd [1] was 87 ± 7 nM and the Kd (hSSB2-dIDR) was 850 ± 20 nM.

AUUUUUGCGGAUGGCUUAGAGCUUAAUUGCGCAACG (ssRNA) [ss36 RNA] showed a Kd [2] of 870 ± 170 nM.

In the case of ATTTTTGCGGATGGCTTAGAGCTTAATTGCGCAACG (ssDNA) [ss36 DNA], the Kd [3] is reported as 530 ± 20 nM.
